Results reported in publication PMC7973133, “Escherichia coli FabG 3-ketoacyl-ACP reductase proteins lacking the assigned catalytic triad residues are active enzymes” (The Journal of Biological Chemistry, 2021).

T1: E. coli FabG (3-ketoacyl-ACP reductase) (Escherichia coli, UniProt P0AEK2)
T1 construct: homotetramer
T1 sequence (P0AEK2 1-244): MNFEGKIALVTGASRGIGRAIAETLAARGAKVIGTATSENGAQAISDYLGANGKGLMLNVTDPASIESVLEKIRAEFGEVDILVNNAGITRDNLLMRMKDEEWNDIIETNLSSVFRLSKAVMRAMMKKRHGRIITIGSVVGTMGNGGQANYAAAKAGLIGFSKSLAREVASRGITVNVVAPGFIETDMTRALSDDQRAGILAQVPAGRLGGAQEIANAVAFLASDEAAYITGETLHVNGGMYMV


Experiments:
[1] = target: T2, E. coli FabG (3-ketoacyl-ACP reductase) (Escherichia coli, UniProt P0AEK2, S138A); assay: fluorescence titration; format: binding
T2 construct: homotetramer
Source text: (§1) fluorescence titration on E. coli FabG (3-ketoacyl-ACP reductase) | wildtype FabG and mutant proteins S138A and Y151F could bind NADPH with Kd values

[2] = target: T3, E. coli FabG (3-ketoacyl-ACP reductase) (Escherichia coli, UniProt P0AEK2, Y151F); assay: fluorescence titration; format: binding
T3 construct: homotetramer
Source text: as §1

[3] = target: T1, E. coli FabG (3-ketoacyl-ACP reductase); assay: fluorescence titration; format: binding
Source text: as §1

[4] = substrate: NC(=O)C1=CN([C@@H]2O[C@H](COP(=O)(O)OP(=O)(O)OC[C@H]3O[C@@H](n4cnc5c(N)ncnc54)[C@H](OP(=O)(O)O)[C@@H]3O)[C@@H](O)[C@H]2O)C=CC1; assay: purified protein; format: biochemical, Escherichia coli; details: acetoacetyl-ACP generated in situ (100 μM ACP, 500 μM malonyl-CoA, 500 μM acetyl-CoA, FabD, FabH), 0.1 M sodium phosphate pH 7.0, varied: cofactor

Row | Kd [1] [µM] | Kd [2] [µM] | Kd [3] [µM] | Molecule | Km [4] [µM]
1 | 13.9 | 15.8 | 13.2 | NC(=O)C1=CN([C@@H]2O[C@H](COP(=O)(O)OP(=O)(O)OC[C@H]3O[C@@H](n4cnc5c(N)ncnc54)[C@H](OP(=O)(O)O)[C@@H]3O)[C@@H](O)[C@H]2O)C=CC1 [NADPH] | 
2 |  |  |  | E. coli FabG (3-ketoacyl-ACP reductase) (Escherichia coli K-12) (protein, homotetramer) MNFEGKIALVTGASRGIGRAIAETLAARGAKVIGTATSENGAQAISDYLGANGKGLMLNVTDPASIESVLEKIRAEFGEVDILVNNAGITRDNLLMRMKDEEWNDIIETNLSSVFRLSKAVMRAMMKKRHGRIITIGSVVGTMGNGGQANYAAAKAGLIGFSKSLAREVASRGITVNVVAPGFIETDMTRALSDDQRAGILAQVPAGRLGGAQEIANAVAFLASDEAAYITGETLHVNGGMYMV | 99.22
3 |  |  |  | E. coli FabG (3-ketoacyl-ACP reductase) (Escherichia coli K-12; Y151F) (protein, homotetramer) MNFEGKIALVTGASRGIGRAIAETLAARGAKVIGTATSENGAQAISDYLGANGKGLMLNVTDPASIESVLEKIRAEFGEVDILVNNAGITRDNLLMRMKDEEWNDIIETNLSSVFRLSKAVMRAMMKKRHGRIITIGSVVGTMGNGGQANFAAAKAGLIGFSKSLAREVASRGITVNVVAPGFIETDMTRALSDDQRAGILAQVPAGRLGGAQEIANAVAFLASDEAAYITGETLHVNGGMYMV | 147.72
4 |  |  |  | E. coli FabG (3-ketoacyl-ACP reductase) (Escherichia coli K-12; S138A) (protein, homotetramer) MNFEGKIALVTGASRGIGRAIAETLAARGAKVIGTATSENGAQAISDYLGANGKGLMLNVTDPASIESVLEKIRAEFGEVDILVNNAGITRDNLLMRMKDEEWNDIIETNLSSVFRLSKAVMRAMMKKRHGRIITIGAVVGTMGNGGQANYAAAKAGLIGFSKSLAREVASRGITVNVVAPGFIETDMTRALSDDQRAGILAQVPAGRLGGAQEIANAVAFLASDEAAYITGETLHVNGGMYMV | 101.47
5 |  |  |  | E. coli FabG (3-ketoacyl-ACP reductase) (Escherichia coli K-12; K155A) (protein, homotetramer) MNFEGKIALVTGASRGIGRAIAETLAARGAKVIGTATSENGAQAISDYLGANGKGLMLNVTDPASIESVLEKIRAEFGEVDILVNNAGITRDNLLMRMKDEEWNDIIETNLSSVFRLSKAVMRAMMKKRHGRIITIGSVVGTMGNGGQANYAAAAAGLIGFSKSLAREVASRGITVNVVAPGFIETDMTRALSDDQRAGILAQVPAGRLGGAQEIANAVAFLASDEAAYITGETLHVNGGMYMV | 166.45
